Laboratory results: US20150274841A1

How the values were obtained:
[1] = molecular target: human plasma kallikrein (PKal) (human), P03952; assay: Ki,app; Fab inhibition of PKal cleavage of a substrate peptide, Morrison fit; conditions: remark: other sources report otherwise
[2] = molecular target: human plasma kallikrein (PKal) (human), P03952; assay: enzyme inhibition assay: rate (F/s) of substrate peptide cleavage by PKal against [Fab] (nM), fitted to the Morrison equation; apparent Ki (Ki,app); Table 3 prints 2.5 nM; conditions: remark: other sources report otherwise

Sequence of human plasma kallikrein (PKal) (human), P03952 (P03952 20-638 limits assumed): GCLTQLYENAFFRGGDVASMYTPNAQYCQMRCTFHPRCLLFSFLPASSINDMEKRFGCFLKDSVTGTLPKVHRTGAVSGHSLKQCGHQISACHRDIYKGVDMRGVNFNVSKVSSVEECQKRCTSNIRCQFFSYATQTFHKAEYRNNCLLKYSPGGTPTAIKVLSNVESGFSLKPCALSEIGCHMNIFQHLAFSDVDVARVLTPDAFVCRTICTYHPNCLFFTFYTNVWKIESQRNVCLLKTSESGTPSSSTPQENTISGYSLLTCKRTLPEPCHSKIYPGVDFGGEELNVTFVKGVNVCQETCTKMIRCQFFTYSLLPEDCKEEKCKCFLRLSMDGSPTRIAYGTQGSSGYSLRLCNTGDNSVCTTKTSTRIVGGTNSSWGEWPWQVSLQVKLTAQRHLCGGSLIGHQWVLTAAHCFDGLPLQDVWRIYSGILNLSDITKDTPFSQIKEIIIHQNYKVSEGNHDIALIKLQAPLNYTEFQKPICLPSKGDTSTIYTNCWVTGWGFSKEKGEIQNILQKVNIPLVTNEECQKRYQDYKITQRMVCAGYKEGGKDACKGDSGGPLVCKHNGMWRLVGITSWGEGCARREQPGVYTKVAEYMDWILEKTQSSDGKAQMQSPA

- Ki [1]: 2.5 nM
- Ki [2]: 6.54 nM
B1: M0162-A04 (Fab, V domains shown)
VH: EVQLLESGGGLVQPGGSLRLSCAASGFTFSHYIMMWVRQAPGKGLEWVSGIYSSGGITVYADSVKGRFTISRDNSKNTLYLQMNSLRAEDTAVYYCAYRRTGIPRRDAFDIWGQGTMVTVSS
VL: DIQMTQSPSTLSASVGDRVTITCRASQSISSWLAWYQQKPGKAPNLLIYKASTLESGVPSRFSGSGSGTEFTLTISSLQPDDFATYYCQQYNTYWTFGQGTKVEIK
